Positions count from the first letter of the chain named.
T1: mutant Ang-2 protein, K468 substituted with alanine (FLAG-tagged at N-terminal) (human, UniProt O15123 281-496, limits assumed)
T1 chain: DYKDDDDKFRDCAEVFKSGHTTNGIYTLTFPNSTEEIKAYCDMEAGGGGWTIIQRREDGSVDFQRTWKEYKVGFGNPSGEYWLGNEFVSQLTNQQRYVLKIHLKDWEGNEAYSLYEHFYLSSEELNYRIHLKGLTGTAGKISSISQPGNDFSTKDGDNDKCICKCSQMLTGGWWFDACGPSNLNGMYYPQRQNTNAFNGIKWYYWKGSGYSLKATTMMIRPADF

T2: mutant Ang-2 protein, I434 substituted with alanine (FLAG-tagged at N-terminal) (human, UniProt O15123 281-496, limits assumed)
T2 construct: also called 1434
T2 chain: T1 chain with I162A, A196K

B1: SAIT-Ang-2-AB-m8B3 (antibody, V domains shown)
VH: DVQLQESGPGLVKPSQSLSLSCTVTGYSIASDYAWNWIRQFPGNKVEWMGYINYRGNTDYNPSLKSRSSINRDTSKNQFFLQLNSVTTGDTATYYCARGNFEGAMDYWGQGTSVTVSS
VL: TIVMTQTPKFLLVSAGDRITITCKASQSVSNDVAWYQQKPGQSPKLLIYYASNRYPGVPDRFTGSGYGTDFTFTISTVQAEDLAVYFCQQDYTSPWTFGGGTELEIK
notes: also called KCLRF-BP-00293
B2: SAIT-Ang-2-AB-m2E7 (antibody, V domains shown)
VH: DLQLQESGPGLVKPSQSLSLTCTVTGYSITSDYAWNWIRQFPGNKLEWMGYISYSGSTSYNPSLKSRISITRDTSKNQFFLQLNSLTTEDTATYYCARGDYGNYVGPMDYWGQGTSVTVSS
VL: B1 VL with T1S, I19V, Q37R, P56T, T93S, W96L, G100A, G101R, E103K, I106L
notes: also called KCLRF-BP-00294

Experiments:
[1] = biological target: T1, mutant Ang-2 protein, K468 substituted …; test: ELISA, antibody coated, 250 ng FLAG-tagged mutant Ang-2, anti-FLAG-HRP, OD450 relative to native Ang-2
Experimental: (§1) Each well of a 96-well MaxiSorp™ flat-bottom plate (Nunc) was coated with 50 ul (microliter) of 1000 nM antibodies (Example 2). Then, the plate was washed five times with a 0.05% (v/v) Tween-20 containing PBS (PBST) and blocked with a 1% (v/v) BSA containing PBS at a room temperature for 2 hours. 250 ng of each mutant Ang-2 protein obtained by substituting S417, Q418, P419, N421, 1434, D448, A449, P452, Y460, N467, K468, or F469 residue of Ang-2 protein tagged with a FLAG sequence ([…], Sigma) at its N-terminal with alanine was added to each well of the plate, which was then allowed to react at a room temperature for 2 hours.
(§2) The plate was washed five times with a 0.05% (v/v) Tween-20 containing PBS, reacted with an anti-FLAG antibody (SIGMA) conjugated with HRP which was diluted in a 1% (v/v) BSA containing PBS at a ratio of 1:5,000 (v/v) at a room temperature for 1 hour, and washed five times with a 0.1% (v/v) Tween-20 containing PBS.
(§3) Finally, 50 ul of TMB substrates (Cell signaling) was added to each well of the plate to induce color development reaction at a room temperature for 3 min. and the reaction was ceased by the addition of 50 ul of Stop solution (Cell signaling) and then, OD450 values were measured on a plate reader (Molecular Devices). By comparing binding affinities with mutated Ang-2 to those of unmutated Ang-2, each epitope of Ang-2 antibodies was identified. The thus obtained measurement results of the binding affinities (%) of mutant Ang-2 against the binding affinity of the native Ang-2 are shown in the following Table 9.

[2] = biological target: T2, mutant Ang-2 protein, I434 substituted …; test: as above
Experimental: as §1, §2, §3

Binder | % at RBD binding (mutant Ang-2 against native Ang-2) [1] [%] | % at RBD binding (mutant Ang-2 against native Ang-2) [2] [%]
B1 | 105 | 99.4
B2 | 101 | 102
